Experimental findings from the RNAGym collection of RNA variant scans (doi:10.7554/elife.80360) are described below.

B1: Hammerhead Ribozyme (parent)
chain: ACCGGAUGUGCUUUCCGGUCUGAUGAGUCCGUGAGGACGAAACAG

In the data set the parent is B1. The experiment in a line: self-cleavage, relative activity (ratio to wild type); higher = more cleavage; co-transcriptional.
In the case of ACCGGAUGUGCUUUCUGGACUGAUGAGUCCGUGAGGACGAAACAG [C16U U19A], the self-cleavage was 0.344. As for ACCGGAUGUGCUUCCCGGUCUGAUGAGUCCGUGAGGACGAAAGAG [U14C C43G], the self-cleavage was 0.309. With ACCGGAUGUCCUUUCCGGUCUGAUGAGUCCGUGAGGACGAAACAG [G10C], the self-cleavage is 1.05. With CCCGGAUGUGCUUUCCGGUCUGAUGAGUCCGUGAGGACGGAACAG [A1C A40G], the self-cleavage turned out to be 0.298. Turning to ACCGGAUGUACUUUCCGGUCUGAUGAGUCCGUGAGGCCGAAACAG [G10A A37C], the self-cleavage came to 1.19.

As for ACCGGAUGUGCUUGCCGGUCUUAUGAGUCCGUGAGGACGAAACAG [U14G G22U], the self-cleavage came to 0.394.

Turning to ACCGGAUGUGCUUUCCGGUCUGGGGAGUCCGUGAGGACGAAACAG [A23G U24G], the self-cleavage came to 0.283. For AACGGAUGUGCAUUCCGGUCUGAUGAGUCCGUGAGGACGAAACAG [C2A U12A], the self-cleavage amounted to 0.62.

With ACCGGAUGUGCUUUCCGGUCUCAUGAGUCCGUGAGGGCGAAACAG [G22C A37G], the self-cleavage came to 0.416. For the variant ACCGGAUGUGCUUGCCGGUCAGAUGAGUCCGUGAGGACGAAACAG [U14G U21A], the self-cleavage amounted to 0.741. For the variant ACCGGAUUAGCUUUCCGGUCUGAUGAGUCCGUGAGGACGAAACAG [G8U U9A], the self-cleavage amounted to 1.11. Consider GCCGGAUGGGCUUUCCGGUCUGAUGAGUCCGUGAGGACGAAACAG [A1G U9G], for which the self-cleavage was 1.58. With ACCGGAUGUGCUUUCCGGUCUGAUGAGUCCGUGAGGACGAGACAC [A41G G45C], the self-cleavage turned out to be 0.402.

For the variant AUCGGAUGUGCUUUCCGGUCUGAUGAGUCUGUGAGGACGAAACAG [C2U C30U], the self-cleavage was 1.04. As to ACCGGACGUGCUUUCCGCUCUGAUGAGUCCGUGAGGACGAAACAG [U7C G18C], the self-cleavage worked out at 0.342. On to GCAGGAUGUGCUUUCCGGUCUGAUGAGUCCGUGAGGACGAAACAG [A1G C3A], for which the self-cleavage was 0.699.

CCCGGAUGUGCUUUCCGGUCUGAUGGGUCCGUGAGGACGAAACAG [A1C A26G]: the self-cleavage came to 0.302. As to ACCGGGUGUACUUUCCGGUCUGAUGAGUCCGUGAGGACGAAACAG [A6G G10A], the self-cleavage worked out at 0.989.

For UCCGGAUGUGCUUUCGGGUCUGAUGAGUCCGUGAGGACGAAACAG [A1U C16G], the self-cleavage is 0.459. In the case of ACCGGAUGUGCUUUCCGGUCUGAUGAGUCCGUGAGUCCGAAACAG [G36U A37C], the self-cleavage was 0.331.

For AGCGGAUGUGCUUUCCGGGCUGAUGAGUCCGUGAGGACGAAACAG [C2G U19G], the self-cleavage amounted to 0.275. Consider ACCGGAUGGGCUUUCCGGUCUGAUGAGGCCGUGAGGACGAAACAG [U9G U28G], for which the self-cleavage was determined as 0.729. As to ACAGGAUGUGCUUUCCGGUCUGAUGAGUCCGAGAGGACGAAACAG [C3A U32A], the self-cleavage worked out at 0.7. Under ACCGGAUGUGCUUUCCGUUCUGAAGAGUCCGUGAGGACGAAACAG [G18U U24A] stands 0.858; under ACCGGAUGUGCUUUCCUGUCUGAUGCGUCCGUGAGGACGAAACAG [G17U A26C], 0.448; under ACCGGAUGUGCUUUCCGGUCAGAUGAGGCCGUGAGGACGAAACAG [U21A U28G], 0.392. As to ACCGGAUGUGCUUUCAGGUCUGAUGAGUCCGUCAGGACGAAACAG [C16A G33C], the self-cleavage came out at 1.24. With ACCGGAUGUGCUUUCCGGUCUAAUGAGUCCGGGAGGACGAAACAG [G22A U32G], the self-cleavage was found to be 0.264. As for ACCCGAUGUGCUUUCCGGUCUGAUGAGUCCGUGGGGACGAAACAG [G4C A34G], the self-cleavage amounted to 0.596. As for ACCGGAUGUGCGUUCCGGUCAGAUGAGUCCGUGAGGACGAAACAG [U12G U21A], the self-cleavage amounted to 0.455. ACCGGAUGUGCUUUCGGGUCUGAUGAGUGCGUGAGGACGAAACAG [C16G C29G]: the self-cleavage came out at 0.496. In the case of ACCGCAAGUGCUUUCCGGUCUGAUGAGUCCGUGAGGACGAAACAG [G5C U7A], the self-cleavage turned out to be 0.874.

On to ACUGGAUGUGCUUUCCGGUCUGAUGAGUCCGUGAGGAAGAAACAG [C3U C38A], for which the self-cleavage amounted to 0.577. Then ACCGGAUGUGCUCUCCGGUAUGAUGAGUCCGUGAGGACGAAACAG [U13C C20A], with 0.573. For ACCGGAUGUGCUUUCCGGUCUGAUGAGGCCGUGUGGACGAAACAG [U28G A34U], the self-cleavage came out at 0.475.

For ACCGGAUGUGCUUUCCGGUCUGUUUAGUCCGUGAGGACGAAACAG [A23U G25U], the self-cleavage came to 0.315. As for ACAGGAUGUGCUUUCGGGUCUGAUGAGUCCGUGAGGACGAAACAG [C3A C16G], the self-cleavage is 0.438. Then ACCGCAUGUGCUUUCCGGUCUGAGGAGUCCGUGAGGACGAAACAG [G5C U24G], with 0.499; and ACAGGAUGUGCUUUCCGGUCUGAUGAGUCCGUCAGGACGAAACAG [C3A G33C], with 0.741.

As to ACCGGAUGUGCUUUCCGGUCUGAUGCGUCCGUCAGGACGAAACAG [A26C G33C], the self-cleavage is 0.559.

For ACCGGAUGAGCUUUCCGGUCUGAUGAGUCCGGGAGGACGAAACAG [U9A U32G], the self-cleavage was determined as 0.539. Then ACCGGAUGAGCUUUCCGGUCUGAUGAGUCCGAGAGGACGAAACAG [U9A U32A], with 0.964. On to ACCGGAUGUGCUUUCCGUGCUGAUGAGUCCGUGAGGACGAAACAG [G18U U19G], for which the self-cleavage stood at 0.291. Take ACCGGAUGUGCUUUCCGGUCUGAUGAGUCCGUGUGGGCGAAACAG [A34U A37G]: the self-cleavage came to 0.757. Regarding ACCGGAUGUGCUUUCCGGGCUGAUGAGUCCGGGAGGACGAAACAG [U19G U32G], the self-cleavage stood at 0.371. With ACCGGGUGUGCUUUCCGGUCUGAUGAGUCCGUGAGGACGAGACAG [A6G A41G], the self-cleavage came out at 0.266.

Consider ACCGGAUGUGGUUUCCGGUCUGAUGAGUCCGAGAGGACGAAACAG [C11G U32A], for which the self-cleavage was 1.1. Under ACCGGAUGUGCUUUCCGGUCUGGUGAGUCCGUGAGGAAGAAACAG [A23G C38A] stands 0.328; under ACCGGAUGUGCUUUCCGGUCUUAUGAGUCCGUGAGGACGAAGCAG [G22U A42G], 0.285. For AACGGAUGUGCUGUCCGGUCUGAUGAGUCCGUGAGGACGAAACAG [C2A U13G], the self-cleavage was 0.86.

In the case of ACCGGAUGUGCUUACCGGUCUGAUGAGUCCGUGAGGACGAAAGAG [U14A C43G], the self-cleavage was determined as 0.334. In the case of ACCGGAUGUGCUUUCCGGUCUGUUGAGCCCGUGAGGACGAAACAG [A23U U28C], the self-cleavage turned out to be 0.356. Take ACCGGAUGUGCUUUCCGCUCUGAUGAGUCCGUGGGGACGAAACAG [G18C A34G]: the self-cleavage is 0.422. For AUCGGAUGUGCUUUCCGGUCUGAUGAGUCCGUGAGGACGAACCAG [C2U A42C], the self-cleavage was 0.358. As for ACCGGAUGUGCUAUCCGGUCUGAUGAGUCCGUGAGGCCGAAACAG [U13A A37C], the self-cleavage worked out at 1.21. Turning to ACCGGACGUGCUUUCCGGUCUGAUGAGUCGGUGAGGACGAAACAG [U7C C30G], the self-cleavage stood at 1.09. Under ACCGGAUGUGCUUUCCGGUCUGAUGAGCCGGUGAGGACGAAACAG [U28C C30G] stands 0.322.
